# B1: Speckle-type POZ protein (Homo sapiens), O43791 (parent)
# chain: MSRVPSPPPPAEMSSGPVAESWCYTQIKVVKFSYMWTINNFSFCREEMGEVIKSSTFSSGANDKLKWCLRVNPKGLDEESKDYLSLYLLLVSCPKSEVRAKFKFSILNAKGEETKAMESQRAYRFVQGKDWGFKKFIRRDFLLDEANGLLPDDKLTLFCEVSVVQDSVNISGQNTMNMVKVPECRLADELGGLWENSRFTDCCLCVAGQEFQAHKAILAARSPVFSAMFEHEMEESKKNRVEINDVEPEVFKEMMCFIYTGKAPNLDKMADDLLAAADKYALERLKVMCEDALCSNLSVENAAEILILADLHSADQLKTQAVDFINYHASDVLETSGWKSMVVSHPHLVAEAYRSLASAQCPFLGPPRKRLKQS
# Variants of: B1
# Conditions: with sin1_human MAPKAP1, Q9BPZ7
# Sequence of sin1_human MAPKAP1, Q9BPZ7 (Q9BPZ7 whole entry): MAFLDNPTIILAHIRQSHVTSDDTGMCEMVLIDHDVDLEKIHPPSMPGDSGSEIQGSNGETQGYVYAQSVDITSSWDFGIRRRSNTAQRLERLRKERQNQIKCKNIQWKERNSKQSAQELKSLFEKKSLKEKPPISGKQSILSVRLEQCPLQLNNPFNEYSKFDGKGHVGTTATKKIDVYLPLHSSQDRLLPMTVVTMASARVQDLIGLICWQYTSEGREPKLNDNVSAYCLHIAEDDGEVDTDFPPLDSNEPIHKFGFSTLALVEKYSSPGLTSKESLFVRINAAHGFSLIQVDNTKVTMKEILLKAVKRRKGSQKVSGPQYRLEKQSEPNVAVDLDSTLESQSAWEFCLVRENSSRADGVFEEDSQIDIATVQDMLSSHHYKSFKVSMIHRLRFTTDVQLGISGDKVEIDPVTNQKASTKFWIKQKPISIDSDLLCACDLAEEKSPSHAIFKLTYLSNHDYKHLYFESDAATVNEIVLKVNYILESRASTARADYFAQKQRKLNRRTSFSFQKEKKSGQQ
row,Variant,effect of a mutation on the interaction
1,Y87C,with no effect

# Variants of: B1
# Conditions: with mcl1_human MCL1, Q07820
row,Variant,effect of a mutation on the interaction
1,Y87C,with no effect

# Variants of: B1
# Conditions: with mdm2_human MDM2, Q00987
# Sequence of mdm2_human MDM2, Q00987 (Q00987 whole entry, looked up): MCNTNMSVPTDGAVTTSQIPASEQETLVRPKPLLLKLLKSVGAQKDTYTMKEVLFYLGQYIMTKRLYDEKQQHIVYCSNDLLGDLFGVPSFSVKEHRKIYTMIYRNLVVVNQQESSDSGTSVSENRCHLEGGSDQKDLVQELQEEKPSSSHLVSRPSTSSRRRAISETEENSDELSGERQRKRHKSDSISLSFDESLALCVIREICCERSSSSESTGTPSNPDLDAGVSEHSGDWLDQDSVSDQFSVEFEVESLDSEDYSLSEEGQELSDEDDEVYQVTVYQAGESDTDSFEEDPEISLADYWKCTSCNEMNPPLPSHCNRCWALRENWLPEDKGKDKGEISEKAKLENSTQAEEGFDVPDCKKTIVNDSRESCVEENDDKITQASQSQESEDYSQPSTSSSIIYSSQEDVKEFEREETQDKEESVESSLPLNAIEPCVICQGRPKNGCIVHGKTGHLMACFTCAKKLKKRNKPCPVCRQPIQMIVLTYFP
row,Variant,effect of a mutation on the interaction
1,Y87C,with no effect

# Variants of: B1
# Conditions: with mitf_human MITF
row,Variant,effect of a mutation on the interaction
1,Y87C,with no effect

# Variants of: B1
# Conditions: with mlh1_human MLH1, P40692
row,Variant,effect of a mutation on the interaction
1,Y87C,with no effect

# Variants of: B1
# Conditions: with mtor_human MTOR
row,Variant,effect of a mutation on the interaction
1,Y87C,with no effect

# Variants of: B1
# Conditions: with mybb_human MYBL2, P10244
row,Variant,effect of a mutation on the interaction
1,Y87C,with no effect

# Variants of: B1
# Conditions: with myc_human MYC
row,Variant,effect of a mutation on the interaction
1,Y87C,with no effect

# Variants of: B1
# Conditions: with mycn_human MYCN
row,Variant,effect of a mutation on the interaction
1,Y87C,with no effect

# Variants of: B1
# Conditions: with ncoa3_human NCOA3, Q9Y6Q9
row,Variant,effect of a mutation on the interaction
1,Y87C,with no effect

# Variants of: B1
# Conditions: with merl_human NF2, P35240
row,Variant,effect of a mutation on the interaction
1,Y87C,with no effect

# Variants of: B1
# Conditions: with nfic_human NFIC
row,Variant,effect of a mutation on the interaction
1,Y87C,with no effect

# Variants of: B1
# Conditions: with ikba_human NFKBIA
row,Variant,effect of a mutation on the interaction
1,Y87C,with no effect

# Variants of: B1
# Conditions: with notc2_human NOTCH2, Q04721
row,Variant,effect of a mutation on the interaction
1,Y87C,with no effect

# Variants of: B1
# Conditions: with nox1_human NOX1, Q9Y5S8
row,Variant,effect of a mutation on the interaction
1,Y87C,with no effect

# Variants of: B1
# Conditions: with ntrk2_human NTRK2, Q16620
row,Variant,effect of a mutation on the interaction
1,Y87C,with no effect

# Variants of: B1
# Conditions: with ntrk3_human NTRK3, Q16288
row,Variant,effect of a mutation on the interaction
1,Y87C,with no effect

# Variants of: B1
# Conditions: with pak3_human PAK3, O75914
row,Variant,effect of a mutation on the interaction
1,Y87C,with no effect

# Variants of: B1
# Conditions: with prkn_human PRKN
row,Variant,effect of a mutation on the interaction
1,Y87C,with no effect

# Variants of: B1
# Conditions: with pb1_human PBRM1, Q86U86
row,Variant,effect of a mutation on the interaction
1,Y87C,with no effect

# Variants of: B1
# Conditions: with pcbp1_human PCBP1, Q15365
row,Variant,effect of a mutation on the interaction
1,Y87C,with no effect

# Variants of: B1
# Conditions: with pdcd1_human PDCD1, Q15116
row,Variant,effect of a mutation on the interaction
1,Y87C,with no effect

# Variants of: B1
# Conditions: with pgfrb_human PDGFRB
row,Variant,effect of a mutation on the interaction
1,Y87C,with no effect

# Variants of: B1
# Conditions: with pdk1_human PDK1, Q15118
row,Variant,effect of a mutation on the interaction
1,Y87C,with no effect

# Variants of: B1
# Conditions: with PIK3C2B
row,Variant,effect of a mutation on the interaction
1,Y87C,with no effect

# Variants of: B1
# Conditions: with pk3cb_human PIK3CB
row,Variant,effect of a mutation on the interaction
1,Y87C,with no effect

# Variants of: B1
# Conditions: with pk3cg_human PIK3CG
row,Variant,effect of a mutation on the interaction
1,Y87C,with no effect

# Variants of: B1
# Conditions: with p85b_human PIK3R2, O00459
row,Variant,effect of a mutation on the interaction
1,Y87C,with no effect

# Variants of: B1
# Conditions: with dpod1_human POLD1, P28340
row,Variant,effect of a mutation on the interaction
1,Y87C,with no effect

# Variants of: B1
# Conditions: with dpoe1_human POLE
row,Variant,effect of a mutation on the interaction
1,Y87C,with no effect

# Variants of: B1
# Conditions: with ppard_human PPARD
row,Variant,effect of a mutation on the interaction
1,Y87C,with no effect

# Variants of: B1
# Conditions: with prdm1_human PRDM1, O75626
row,Variant,effect of a mutation on the interaction
1,Y87C,with no effect

# Variants of: B1
# Conditions: with prex2_human PREX2, Q70Z35
row,Variant,effect of a mutation on the interaction
1,Y87C,with no effect

# Variants of: B1
# Conditions: with aapk2_human PRKAA2, P54646
row,Variant,effect of a mutation on the interaction
1,Y87C,with no effect

# Variants of: B1
# Conditions: with prss8_human PRSS8, Q16651
row,Variant,effect of a mutation on the interaction
1,Y87C,with no effect

# Variants of: B1
# Conditions: with ptk6_human PTK6, Q13882
row,Variant,effect of a mutation on the interaction
1,Y87C,with no effect

# Variants of: B1
# Conditions: with tf65_human RELA
row,Variant,effect of a mutation on the interaction
1,Y87C,with no effect

# Variants of: B1
# Conditions: with rictr_human RICTOR
row,Variant,effect of a mutation on the interaction
1,Y87C,with no effect

# Variants of: B1
# Conditions: with rnf43_human RNF43, Q68DV7
row,Variant,effect of a mutation on the interaction
1,Y87C,with no effect

# Variants of: B1
# Conditions: with ros1_human ROS1, P08922
row,Variant,effect of a mutation on the interaction
1,Y87C,with no effect

# Variants of: B1
# Conditions: with rl11_human RPL11, P62913
row,Variant,effect of a mutation on the interaction
1,Y87C,with no effect

# Variants of: B1
# Conditions: with rl5_human RPL5, P46777
row,Variant,effect of a mutation on the interaction
1,Y87C,with no effect

# Variants of: B1
# Conditions: with rs15_human RPS15, P62841
row,Variant,effect of a mutation on the interaction
1,Y87C,with no effect

# Variants of: B1
# Conditions: with rs2_human RPS2, P15880
row,Variant,effect of a mutation on the interaction
1,Y87C,with no effect

# Variants of: B1
# Conditions: with rptor_human RPTOR
row,Variant,effect of a mutation on the interaction
1,Y87C,with no effect

# Variants of: B1
# Conditions: with rxra_human RXRA
row,Variant,effect of a mutation on the interaction
1,Y87C,with no effect

# Variants of: B1
# Conditions: with sdha_human SDHA
row,Variant,effect of a mutation on the interaction
1,Y87C,with no effect

# Variants of: B1
# Conditions: with setbp_human SETBP1, Q9Y6X0
row,Variant,effect of a mutation on the interaction
1,Y87C,with no effect

# Variants of: B1
# Conditions: with setb1_human SETDB1, Q15047
row,Variant,effect of a mutation on the interaction
1,Y87C,with no effect

# Variants of: B1
# Conditions: with skp2_human SKP2, Q13309
row,Variant,effect of a mutation on the interaction
1,Y87C,with no effect

# Variants of: B1
# Conditions: with smad1_human SMAD1, Q15797
row,Variant,effect of a mutation on the interaction
1,Y87C,with no effect

# Variants of: B1
# Conditions: with smca4_human SMARCA4, P51532
row,Variant,effect of a mutation on the interaction
1,Y87C,with no effect

# Variants of: B1
# Conditions: with snf5_human SMARCB1, Q12824
row,Variant,effect of a mutation on the interaction
1,Y87C,with no effect

# Variants of: B1
# Conditions: with smo_human SMO
row,Variant,effect of a mutation on the interaction
1,Y87C,with no effect

# Variants of: B1
# Conditions: with smuf1_human SMURF1, Q9HCE7
row,Variant,effect of a mutation on the interaction
1,Y87C,with no effect

# Variants of: B1
# Conditions: with socs1_human SOCS1, O15524
row,Variant,effect of a mutation on the interaction
1,Y87C,with no effect

# Variants of: B1
# Conditions: with sox10_human SOX10, P56693
row,Variant,effect of a mutation on the interaction
1,Y87C,with no effect

# Variants of: B1
# Conditions: with sox2_human SOX2, P48431
row,Variant,effect of a mutation on the interaction
1,Y87C,with no effect

# Variants of: B1
# Conditions: with src_human SRC
row,Variant,effect of a mutation on the interaction
1,Y87C,with no effect

# Variants of: B1
# Conditions: with whr1_human WHR1, P49842
row,Variant,effect of a mutation on the interaction
1,Y87C,with no effect

# Variants of: B1
# Conditions: with stk38_human STK38, Q15208
row,Variant,effect of a mutation on the interaction
1,Y87C,with no effect

# Variants of: B1
# Conditions: with eloc_human ELOC
row,Variant,effect of a mutation on the interaction
1,Y87C,with no effect

# Variants of: B1
# Conditions: with tfe2_human TCF3, P15923
row,Variant,effect of a mutation on the interaction
1,Y87C,with no effect

# Variants of: B1
# Conditions: with tead1_human TEAD1, P28347
row,Variant,effect of a mutation on the interaction
1,Y87C,with no effect

# Variants of: B1
# Conditions: with tead3_human TEAD3, Q99594
row,Variant,effect of a mutation on the interaction
1,Y87C,with no effect

# Variants of: B1
# Conditions: with tead4_human TEAD4, Q15561
# Sequence of tead4_human TEAD4, Q15561 (Q15561 whole entry): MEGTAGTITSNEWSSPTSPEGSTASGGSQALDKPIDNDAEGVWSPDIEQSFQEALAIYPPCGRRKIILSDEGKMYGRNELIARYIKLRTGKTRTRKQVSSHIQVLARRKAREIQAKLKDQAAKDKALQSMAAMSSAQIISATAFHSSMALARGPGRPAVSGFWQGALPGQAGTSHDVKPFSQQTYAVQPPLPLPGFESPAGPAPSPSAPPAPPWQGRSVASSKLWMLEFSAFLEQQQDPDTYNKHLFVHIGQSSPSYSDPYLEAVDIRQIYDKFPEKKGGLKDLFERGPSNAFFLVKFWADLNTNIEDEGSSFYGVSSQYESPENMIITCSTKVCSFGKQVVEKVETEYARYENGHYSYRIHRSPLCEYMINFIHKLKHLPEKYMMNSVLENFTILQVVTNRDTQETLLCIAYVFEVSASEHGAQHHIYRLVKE
row,Variant,effect of a mutation on the interaction
1,Y87C,with no effect

# Variants of: B1
# Conditions: with tet2_human TET2, Q6N021
row,Variant,effect of a mutation on the interaction
1,Y87C,with no effect

# Variants of: B1
# Conditions: with tgfr2_human TGFBR2, P37173
row,Variant,effect of a mutation on the interaction
1,Y87C,with no effect

# Variants of: B1
# Conditions: with tnr14_human TNFRSF14, Q92956
# Sequence of tnr14_human TNFRSF14, Q92956 (Q92956 whole entry): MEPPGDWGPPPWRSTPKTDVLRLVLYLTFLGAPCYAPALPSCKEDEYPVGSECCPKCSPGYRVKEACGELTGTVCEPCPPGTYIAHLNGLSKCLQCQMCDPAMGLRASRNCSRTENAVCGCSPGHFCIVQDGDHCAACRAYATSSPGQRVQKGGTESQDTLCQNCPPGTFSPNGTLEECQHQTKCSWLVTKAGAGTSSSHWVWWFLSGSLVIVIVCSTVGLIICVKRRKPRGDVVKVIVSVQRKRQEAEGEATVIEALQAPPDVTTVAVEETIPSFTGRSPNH
row,Variant,effect of a mutation on the interaction
1,Y87C,with no effect

# Variants of: B1
# Conditions: with tsc2_human TSC2, P49815
# Sequence of tsc2_human TSC2, P49815 (P49815 whole entry): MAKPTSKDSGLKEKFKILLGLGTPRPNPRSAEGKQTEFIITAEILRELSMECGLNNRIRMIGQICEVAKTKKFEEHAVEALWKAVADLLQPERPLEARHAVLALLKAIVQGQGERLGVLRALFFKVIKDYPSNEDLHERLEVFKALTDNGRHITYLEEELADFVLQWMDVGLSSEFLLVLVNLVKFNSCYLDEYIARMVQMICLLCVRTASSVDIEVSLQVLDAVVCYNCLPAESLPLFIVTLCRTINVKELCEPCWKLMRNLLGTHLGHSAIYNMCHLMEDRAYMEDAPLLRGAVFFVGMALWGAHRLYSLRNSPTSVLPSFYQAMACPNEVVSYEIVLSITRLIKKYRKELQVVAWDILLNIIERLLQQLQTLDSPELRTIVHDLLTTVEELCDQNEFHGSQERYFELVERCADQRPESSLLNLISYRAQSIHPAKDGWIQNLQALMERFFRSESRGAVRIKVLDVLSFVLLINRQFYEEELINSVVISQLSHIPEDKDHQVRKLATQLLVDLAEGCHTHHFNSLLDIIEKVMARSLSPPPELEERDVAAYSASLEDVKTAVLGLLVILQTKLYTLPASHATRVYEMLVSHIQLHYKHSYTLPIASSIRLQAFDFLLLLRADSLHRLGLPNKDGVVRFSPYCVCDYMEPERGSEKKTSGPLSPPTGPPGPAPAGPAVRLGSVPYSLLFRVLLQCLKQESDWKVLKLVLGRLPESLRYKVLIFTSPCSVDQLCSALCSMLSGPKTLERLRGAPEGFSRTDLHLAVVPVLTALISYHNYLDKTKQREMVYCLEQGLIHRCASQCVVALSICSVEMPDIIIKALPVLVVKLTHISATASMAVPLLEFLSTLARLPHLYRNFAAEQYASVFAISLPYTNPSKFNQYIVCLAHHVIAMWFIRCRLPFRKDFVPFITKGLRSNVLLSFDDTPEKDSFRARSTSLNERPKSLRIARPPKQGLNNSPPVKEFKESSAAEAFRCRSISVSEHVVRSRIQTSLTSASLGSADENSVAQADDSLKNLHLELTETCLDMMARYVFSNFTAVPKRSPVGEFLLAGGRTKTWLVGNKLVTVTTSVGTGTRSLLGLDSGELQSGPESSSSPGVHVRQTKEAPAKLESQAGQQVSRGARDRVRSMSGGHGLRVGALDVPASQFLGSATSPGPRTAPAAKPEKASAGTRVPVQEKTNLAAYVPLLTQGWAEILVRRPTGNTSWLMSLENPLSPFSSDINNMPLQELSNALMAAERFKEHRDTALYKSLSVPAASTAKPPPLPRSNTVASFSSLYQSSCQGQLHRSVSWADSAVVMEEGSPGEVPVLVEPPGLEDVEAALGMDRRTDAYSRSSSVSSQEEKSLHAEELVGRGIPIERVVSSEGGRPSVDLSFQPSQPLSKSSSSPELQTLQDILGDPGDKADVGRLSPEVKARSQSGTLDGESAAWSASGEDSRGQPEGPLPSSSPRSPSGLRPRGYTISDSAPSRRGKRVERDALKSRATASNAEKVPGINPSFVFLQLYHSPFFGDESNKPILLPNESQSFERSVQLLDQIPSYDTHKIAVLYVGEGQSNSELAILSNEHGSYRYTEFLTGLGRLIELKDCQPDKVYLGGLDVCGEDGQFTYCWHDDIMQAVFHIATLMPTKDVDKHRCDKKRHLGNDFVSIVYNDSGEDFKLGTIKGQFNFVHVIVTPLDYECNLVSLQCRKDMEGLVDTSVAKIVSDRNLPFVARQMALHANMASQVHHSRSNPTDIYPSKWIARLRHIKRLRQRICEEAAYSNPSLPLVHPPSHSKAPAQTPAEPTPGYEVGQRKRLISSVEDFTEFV
row,Variant,effect of a mutation on the interaction
1,Y87C,with no effect

# Variants of: B1
# Conditions: with tshr_human TSHR
row,Variant,effect of a mutation on the interaction
1,Y87C,with no effect

# Variants of: B1
# Conditions: with vegfa_human VEGFA
row,Variant,effect of a mutation on the interaction
1,Y87C,with no effect

# Variants of: B1
# Conditions: with vhl_human VHL
row,Variant,effect of a mutation on the interaction
1,Y87C,with no effect

# Variants of: B1
# Conditions: with wee1_human WEE1, P30291
row,Variant,effect of a mutation on the interaction
1,Y87C,with no effect

# Variants of: B1
# Conditions: with wwtr1_human WWTR1, Q9GZV5
# Sequence of wwtr1_human WWTR1, Q9GZV5 (Q9GZV5 whole entry): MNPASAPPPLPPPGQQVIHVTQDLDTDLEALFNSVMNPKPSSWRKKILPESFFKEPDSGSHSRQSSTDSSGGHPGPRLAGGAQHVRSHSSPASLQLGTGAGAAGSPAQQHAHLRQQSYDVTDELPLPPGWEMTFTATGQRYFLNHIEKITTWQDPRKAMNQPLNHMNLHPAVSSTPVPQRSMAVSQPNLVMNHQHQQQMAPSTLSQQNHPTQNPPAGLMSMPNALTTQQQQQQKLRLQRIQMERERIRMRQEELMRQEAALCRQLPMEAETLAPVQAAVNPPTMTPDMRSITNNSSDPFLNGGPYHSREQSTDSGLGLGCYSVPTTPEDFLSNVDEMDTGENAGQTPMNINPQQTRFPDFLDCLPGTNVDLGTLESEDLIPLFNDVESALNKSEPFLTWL
row,Variant,effect of a mutation on the interaction
1,Y87C,with no effect

# Variants of: B1
# Conditions: with xpo1_human XPO1, O14980
# Sequence of xpo1_human XPO1, O14980 (O14980 whole entry): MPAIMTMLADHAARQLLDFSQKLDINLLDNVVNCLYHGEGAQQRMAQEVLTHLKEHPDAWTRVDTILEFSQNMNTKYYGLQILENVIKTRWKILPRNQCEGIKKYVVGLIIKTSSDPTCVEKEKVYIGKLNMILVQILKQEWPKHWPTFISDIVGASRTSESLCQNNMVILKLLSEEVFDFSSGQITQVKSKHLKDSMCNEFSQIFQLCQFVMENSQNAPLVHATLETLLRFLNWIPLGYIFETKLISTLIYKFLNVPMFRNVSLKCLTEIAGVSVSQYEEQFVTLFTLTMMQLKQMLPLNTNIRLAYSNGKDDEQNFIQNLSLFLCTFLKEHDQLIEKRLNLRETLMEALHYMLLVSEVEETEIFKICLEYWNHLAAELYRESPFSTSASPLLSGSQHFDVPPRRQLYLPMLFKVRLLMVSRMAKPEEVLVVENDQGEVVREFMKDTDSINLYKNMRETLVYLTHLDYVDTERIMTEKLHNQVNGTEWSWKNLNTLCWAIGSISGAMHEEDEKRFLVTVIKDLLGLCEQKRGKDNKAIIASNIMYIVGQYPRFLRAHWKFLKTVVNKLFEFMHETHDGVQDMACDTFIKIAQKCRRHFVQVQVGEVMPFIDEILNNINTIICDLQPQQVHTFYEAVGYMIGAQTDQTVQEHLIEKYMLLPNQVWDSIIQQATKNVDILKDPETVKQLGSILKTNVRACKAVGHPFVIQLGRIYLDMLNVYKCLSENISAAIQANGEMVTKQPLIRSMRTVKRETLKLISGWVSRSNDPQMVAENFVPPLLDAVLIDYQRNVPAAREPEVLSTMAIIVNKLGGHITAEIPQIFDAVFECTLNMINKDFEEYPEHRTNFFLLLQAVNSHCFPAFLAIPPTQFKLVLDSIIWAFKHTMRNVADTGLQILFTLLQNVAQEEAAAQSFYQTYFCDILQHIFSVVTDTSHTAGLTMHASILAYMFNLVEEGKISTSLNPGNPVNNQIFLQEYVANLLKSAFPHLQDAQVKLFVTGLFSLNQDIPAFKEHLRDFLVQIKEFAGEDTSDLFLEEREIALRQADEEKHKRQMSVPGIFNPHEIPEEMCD
row,Variant,effect of a mutation on the interaction
1,Y87C,with no effect

# Variants of: B1
# Conditions: with il7ra_human IL7R
row,Variant,effect of a mutation on the interaction
1,Y87C,increasing interaction strength

# Source: IntAct's records for PubMed 35512704
